According to the MegaScale stability set (Tsuboyama et al. 2023):

B1: 2K2A (parent)
chain: ELREAFRLYDKEGNGYISTDVMREILAELDETLSSEDLDAMIDEIDADGSGTVDFEEFMGVMT

Variants of: B1
Assay: folding stability dG (cDNA display proteolysis); higher = more stable
Details: PBS, room temperature

Variant	folding stability dG [kcal/mol]
S35T	1.81
S35M	1.86
S35V	1.77
S35G	1.78
S35I	1.79
S35D	1.92
S35Q	2.05
S35R	1.96
S35H	1.82
S35F	1.48
S35W	1.48
S35P	2.06
S35N	1.85
S35E	2.15
S35C	1.64
S35L	1.69
S35K	2.14
S35Y	1.53
S35A	1.92
L38E	-0.551
L38V	1.52
L38R	0.432
L38P	-0.322
L38Q	0.089

Variant	folding stability dG [kcal/mol]
L38D	-0.787
L38C	0.399
L38W	0.599
L38T	0.114
L38K	0.304
L38G	-0.721
L38F	0.593
L38S	-0.47
L38I	1.99
L38Y	0.134
L38A	0.262
L38H	-0.529
L38M	1.26
E36Q	1.82
E36K	1.81
E36V	1.69
E36C	1.85
E36H	1.65
E36P	1.04
E36N	1.66
E36W	1.87
E36F	1.83
E36R	1.82
E36G	1.54

Variant	folding stability dG [kcal/mol]
E36T	1.82
E36A	1.96
E36Y	1.81
E36I	1.53
E36L	1.66
E36M	1.7
E36D	1.89
E36S	1.88
L33T	0.695
L33Y	1.43
L33W	1.83
L33G	-0.126
L33F	1.34
L33M	1.41
L33S	0.411
L33H	0.717
L33R	1.36
L33V	0.861
L33E	-0.382
L33K	0.956
L33I	1.36
L33P	-0.18
L33N	0.113
L33D	-0.084

Variant	folding stability dG [kcal/mol]
L33Q	0.501
L33C	1.07
L33A	1.02
D37K	1.71
D37G	1.15
D37N	1.32
D37L	1.59
D37P	-0.169
D37S	1.52
D37W	1.56
D37R	1.82
D37I	1.65
D37V	1.66
D37Y	1.26
D37C	2
D37F	1.22
D37E	2.08
D37T	1.76
D37Q	2.1
D37M	1.96
D37H	1.4
D37A	1.86
T32M	1.52
T32I	0.878

Variant	folding stability dG [kcal/mol]
T32V	0.877
T32S	1.99
T32A	1.5
T32C	1.73
T32R	1.74
T32N	1.86
T32Q	1.57
T32E	1.48
T32D	1.42
T32G	1.67
T32K	1.79
T32Y	1.54
T32L	1.46
T32W	1.62
T32F	1.62
T32P	0.441
T32H	1.8
A40F	1.77
A40E	1.51
A40C	1.93
A40G	1.34
A40D	1.4
A40H	2.19
S34F	0.67

Variant	folding stability dG [kcal/mol]
S34P	0.476
S34H	0.919
S34D	1.3
S34Q	1.18
S34Y	0.751
S34C	1.2
S34T	2.12
S34K	1.45
S34W	0.76
S34R	1.47
S34V	1.02
S34M	1.27
S34I	0.894
S34L	1.21
S34G	1.26
S34N	1.58
S34E	1.05
S34A	1.26
E31Y	2.01
E31Q	2.2
E31R	2.41
E31V	2.01
E31N	2.15
E31W	1.98

Variant	folding stability dG [kcal/mol]
E31M	2.02
E31S	2.28
E31T	2.12
E31P	2.61
D39C	1.16
D39F	1.15
D39L	1.3
D39K	1.48
D39T	1.3
D39Y	1.06
D39N	1.58
D39R	1.41
D39E	1.4
D39I	1.33
D39M	1.32
D39G	0.971
D39Q	1.57
D39A	1.48
D39W	1.22
D39S	1.39
D39P	-0.067
D39V	0.996
D39H	1.13
